Measured values published in paper PMC7809406, “Structure of a full-length bacterial polysaccharide co-polymerase” (Nature Communications, 2021).

Target: the molecule itself
Assay: cryo-EM structure; single-particle analysis of SEC population 1 in DDM (25 mM TRIS pH 8.0, 100 mM NaCl, 3% glycerol, 0.5 mM TCEP, 0.02% DDM), 3.0 mg/mL; protomers to octamer; maps with C1 and C8 symmetry

B1: Full-length WzzB polysaccharide co-polymerase of E. coli (natural protein, E. coli K12, UniProt P76372 1-326, looked up)
chain: MRVENNNVSGQNHDPEQIDLIDLLVQLWRGKMTIIISVIVAIALAIGYLAVAKEKWTSTAIITQPDVGQIAGYNNAMNVIYGQAAPKVSDLQETLIGRFSSAFSALAETLDNQEEREKLTIEPSVKNQQLPLTVSYVGQTAEGAQMKLAQYIQQVDDKVNQELEKDLKDNIALGRKNLQDSLRTQEVVAQEQKDLRIRQIQEALQYANQAQVTKPQIQQTGEDITQDTLFLLGSEALESMIKHEATRPLVFSPNYYQTRQNLLDIESLKVDDLDIHAYRYVMKPMLPIRRDSPKKAITLILAVLLGGMVGAGIVLGRNALRNYNAK
notes: WzzB, polysaccharide co-polymerase (O-antigen chain length regulator), amplified from E. coli K12 genomic DNA; full-length gene; Integral membrane protein in a DDM micelle; The 8×His tag is non-cleavable (modified pWaldo vector); About 25% of the particles are dimers of the octamer; also called native protein; polysaccharide co-polymerase (PCP) Wzz; source: E. coli C41, membranes solubilized with …
- stoichiometry N: 8

B2: N-terminal truncated WzzB, missing residues 1-15 (truncated E16M variant) (domain or fragment, E. coli K12, UniProt P76372 16-326, looked up)
chain: MQIDLIDLLVQLWRGKMTIIISVIVAIALAIGYLAVAKEKWTSTAIITQPDVGQIAGYNNAMNVIYGQAAPKVSDLQETLIGRFSSAFSALAETLDNQEEREKLTIEPSVKNQQLPLTVSYVGQTAEGAQMKLAQYIQQVDDKVNQELEKDLKDNIALGRKNLQDSLRTQEVVAQEQKDLRIRQIQEALQYANQAQVTKPQIQQTGEDITQDTLFLLGSEALESMIKHEATRPLVFSPNYYQTRQNLLDIESLKVDDLDIHAYRYVMKPMLPIRRDSPKKAITLILAVLLGGMVGAGIVLGRNALRNYNAK
notes: WzzB of E. coli K12 missing the first 15 amino acids; a start codon was introduced at position 16 (E16M); Same vector and non-cleavable C-terminal 8×His tag as m1; Virtually all particles are dimers of octamers; also called N-terminally truncated WzzB; N-terminally truncated variant; source: E. coli C41, membranes solubilized with 1% DDM, purified (Ni-NTA, Superdex 200 SEC); not shown: 8×His, …
- stoichiometry N: 8
